The record followed here is US20250304677A1 (VIB VZW, published 2025).

The EC50 (read off the curve) is the concentration that produces a half-maximal response. As a reminder, the EC50 is the midpoint of the concentration-response curve.

For assay [1], the target named is T1, mouse folate receptor alpha (mFRα), recombinant protein (mouse, UniProt P35846 25-232).
T1 construct: Bought recombinant proteins (e.g. biotinylated, Acro Biosystems FO1-M82E9); also called mFOLR1; Ms FOLR1
Briefly: ELISA on coated mouse FOLR1, without and with 100 µM folic acid (series not separable). As to the method:
(§1) Data were normalized and technical replicates were plotted as mean±SD. Data were fitted by non-linear regression and the half-maximal effective concentration ^{∘}EC50) was calculated using GraphPad Prism 9 software. ^{∘}FIG. 1C and FIG. 1D) Binding affinity determination of anti-FOLR1 VHHs for native FOLR1. Mouse ^{∘}FIG. 1C) or human FOLR1 FIG. 1D) was overexpressed on HEK293T cells and binding of the anti-FOLR1 VHHs was assessed using flow cytometry. The mean fluorescence intensity ^{∘}MFI) of the phycoerythrin signal was plotted for each VHH concentration. Data were fitted by non-linear regression using GraphPad Prism 9 software. ^{∘}FIG. 1E) Determination of the competition of representative family members with folic acid ^{∘}FA) using ELISA. Mouse FOLR1 was coated on the plate and was pre-incubated with or without 100 μM FA before adding the VHHs. Data were fitted by non-linear regression using GraphPad Prism 9 software.
(§2) As interference with the endogenous transport of folates via FRα could have serious implications on brain homeostasis, competition between representative family members and FA for mouse FRα binding was assessed via ELISA ^{∘}FIG. 1E).

Assay [2] deals with T2, human folate receptor alpha (hFRα), recombinant protein (human, UniProt P15328 25-233).
T2 construct: Bought recombinant proteins (His-tagged, or biotinylated via Avi-tag, e.g. AcroBiosystems FO1-H82E2, F01-H52H1); also called hFOLR1; huFOLR1
Briefly: ELISA on recombinant human FOLR1, cMyc tag detection, normalised binding, non-linear fit. How it is done: as §1
(§3) In a first step, binding affinity and cross-reactivity of the purified VHHs to human and mouse FRα was assessed by ELISA, using detection of the cMyc tag ^{∘}FIG. 1A-B). […] 2HFO19 ^{∘}family 1) was the best binder of all tested VHHs to both mouse and human FRα with an EC₅₀ of 0.1 nM and 0.4 nM respectively ^{∘}FIG. 1A-B).

Assay [3] has as its target T1, mouse folate receptor alpha (mFRα), …. The experiment in a line: ELISA on recombinant mouse FOLR1, cMyc tag detection, normalised binding, non-linear fit. How it is done:
as §1, §3
(ELISA stands for enzyme-linked immunosorbent assay.)

Another assay has as its target T3, human FOLR1/2 chimera 4 (human, UniProt P15328 25-234).
T3 construct: Region of amino acids 140-150 of hFOLR1 replaced by hFOLR2
Briefly: flow cytometry on transiently transfected HEK293T cells, mouse anti-His then anti-mouse-PE (B575-A). How it is done: Chimera 1 SEQ ID No. 67) and 7 ^{∘}Ch7; SEQ ID No. 73) also contain an additional residue change at a separate location. […] HEK293T cells were transfected with hFOLR1, hFOLR2, one of the hFOLR1/2 chimeric constructs ^{∘}FIG. 2B) or single residue mutants ^{∘}FIG. 2C). Binding of VHHs 2HFO19, 2HFO42, 3MFR60, and a mouse anti-FOLR1 monoclonal antibody ^{∘}mAb) was detected using a mouse anti-His tag antibody for the VHHs followed by an anti-mouse-phycoerythrin antibody. All VHHs were tested at a concentration of 200 nM and untransfected cells were used as a negative control. The colors used for the VHHs represent the different CDR3 families; blue: family 1, green: family 3, grey: family 10.
To identify the exact region in which the VHHs bind to FRα, epitope mapping experiments were performed. Since the VHHs are able to bind human FRα, but not FRβ, we generated seven human FOLR1/2 chimeric constructs where regions of human FOLR1 were replaced by the corresponding human FOLR2 ^{∘}FRβ) regions ^{∘}FIG. 2A): chimera 1 SEQ ID No. 67), chimera 2 ^{∘}SEQ ID No. 68), chimera 3 ^{∘}SEQ ID No. 69), chimera 4 ^{∘}SEQ ID No. 70), chimera 5 ^{∘}SEQ ID No. 71), chimera 6 ^{∘}SEQ ID No. 72) and chimera 7 ^{∘}SEQ ID No. 73). Three additional chimera 1 constructs were made: chimera 1a ^{∘}replacing fragment 31-40; SEQ ID No. 74), chimera 1b ^{∘}replacing fragment 41-50; SEQ ID No. 75) and chimera 1c ^{∘}replacing fragment 51-64; SEQ ID NO. 76). The constructs were transiently transfected into HEK293T cells and dose-dependent binding of the VHHs to the wild-types FRα and FRβ ^{∘}WTs) or the chimeric constructs was assessed via flow cytometry via detection of the tag ^{∘}FIG. 2B). […] Different anti-FRα VHHs were able to bind to cell-expressed FRα-FRβ chimeras to a similar level as WT FRα, with the exception of chimera 4 ^{∘}SEQ ID No. 70) where the binding was completely abolished for all VHHs.

Assay [4] deals with T1, mouse folate receptor alpha (mFRα), …. Briefly: ELISA on coated mouse FOLR1, without folic acid. As to the method: as §1, §2
The target is the same in assay [5]. The experiment in a line: ELISA on coated mouse FOLR1 pre-incubated with 100 µM folic acid. How it is done: as §1, §2
The target is the same in assay [6]. Briefly: ELISA on recombinant FRα, cMyc tag detection. As to the method: as §1, §3
Assay [7] has as its target T2, human folate receptor alpha (hFRα), …. The experiment in a line: ELISA on recombinant FRα, cMyc tag detection. How it is done: as §1, §3

T1 sequence (P35846 25-232 limits assumed): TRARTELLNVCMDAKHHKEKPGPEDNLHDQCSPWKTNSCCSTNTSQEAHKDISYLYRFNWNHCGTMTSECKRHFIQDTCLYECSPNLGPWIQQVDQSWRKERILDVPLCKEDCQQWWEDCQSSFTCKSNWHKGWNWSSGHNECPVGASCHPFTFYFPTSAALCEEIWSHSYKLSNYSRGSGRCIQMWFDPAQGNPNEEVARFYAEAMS
T2 sequence (P15328 25-233 limits assumed): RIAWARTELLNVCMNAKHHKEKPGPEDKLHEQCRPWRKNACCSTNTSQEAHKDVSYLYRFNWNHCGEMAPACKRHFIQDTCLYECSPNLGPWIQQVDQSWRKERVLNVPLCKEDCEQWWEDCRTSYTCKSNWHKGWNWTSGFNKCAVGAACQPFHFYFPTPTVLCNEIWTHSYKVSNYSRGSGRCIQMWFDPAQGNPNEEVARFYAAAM
T3 sequence (P15328 other isoform, or with tags, fused parts or gaps mutant limits assumed): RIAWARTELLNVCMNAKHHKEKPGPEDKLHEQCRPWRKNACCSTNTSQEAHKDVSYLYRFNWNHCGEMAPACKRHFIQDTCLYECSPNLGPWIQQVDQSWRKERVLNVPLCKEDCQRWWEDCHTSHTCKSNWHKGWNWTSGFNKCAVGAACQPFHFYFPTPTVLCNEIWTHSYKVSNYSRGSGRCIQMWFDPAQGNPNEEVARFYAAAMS

B1: VHH 3MFR60 (family 10) (VHH)
VHH: QVQLQESGGGLVQAGGSLRVSCAASGIIFSMNGMGWFRQAPGKQRELVASITSGGSTKYADSVKGRFTISRDNAKNTVYLQMNSLKPEDTAVYYCNIQFGSRWSTYWGQGTQVTVSS
B1: the “EC50 (read off the curve)” value in assay [1] was roughly 3 nM. The EC50 worked out at 11.1 nM in assay [2] and 0.3 nM in assay [3]. Further, the binding result with human FOLR1/2 chimera 4 is “no binding (tested: 200 nM)”.

B2: VHH 2HFO42 (family 3) (VHH)
VHH: QVQLQESGGGLVQAGGSLRLSCAASGSGFSGMIMGWYRQVPGKQRELVATVTSHGTTNYADSVKGRFTISRDNAKNTVLLQMNSLKPEDTAVYYCNAHFPGIYWGKGTQVTVSS
notes: also called 2HF042; Nb42
With B2, the “EC50 (read off the curve)” value in assay [4] was roughly 2 nM; in assay [5], 2 to 3 nM. For the same molecule, the EC50 in assay [2] was 10.4 nM; in assay [3], 0.2 nM. Besides, the binding result with human FOLR1/2 chimera 4 is recorded as “no binding (tested: 200 nM)”.

B3: VHH 2HFO19 (family 1) (VHH)
VHH: QVQLQESGGGLVQPGGSLRVSCAASGFPFSTVYMSWVRQAPGKGLEWVSGINNDGGVIDYADSVKGRFTISRDNAKNTLYLQLNSLKPEDTALYFCARGRSFVATLSSSLRGQGTQVTVSS
notes: also called Nb19
B3: the half-maximal effective concentration (EC50 (read off the curve)) in assay [4] and in assay [5] was roughly 1 nM throughout. Further, the binding result with human FOLR1/2 chimera 4 was “no binding (tested: 200 nM)”. The figures for the concentration giving a half-maximal response (EC50) in assay [6] and in assay [7] were 0.1 nM and 0.4 nM, respectively.
